Experiment [1] deals with HLA-B*44:02. The experiment is described as follows: IEDB peptide-MHC binding, purified MHC/direct/fluorescence; filed as Kd, often an IC50 or EC50 that approximates it; ≥ and ≤ were set here for values at or beyond the usual limits of such assays.
Experiment [2] deals with HLA-B*40:01. Described as above.
In experiment [3] the target is HLA-B*18:01. The experiment is described as above.
The target in experiment [4] is HLA-A*68:02. The experiment is described as follows: IEDB peptide-MHC binding, purified MHC/competitive/radioactivity; filed as Kd, often an IC50 or EC50 that approximates it; ≥ and ≤ were set here for values at or beyond the usual limits of such assays.
Experiment [5] has as its target HLA-B*58:01. Description: IEDB peptide-MHC binding, purified MHC/direct/fluorescence; filed as Kd, often an IC50 or EC50 that approximates it; ≥ and ≤ were set here for values at or beyond the usual limits of such assays.
For experiment [6], the target named is HLA-B*57:01. The experiment is described as above. The following applies: source organism: Giardia lamblia ATCC 50803.
Experiment [7] concerns the target HLA-A*03:01. The description is as above.
For experiment [8], the target named is HLA-A*31:01. The experiment is described as above. The following applies: source organism: Entamoeba histolytica HM-1:IMSS.
Experiment [9] concerns the target HLA-A*23:01. The experiment is described as follows: IEDB peptide-MHC binding, purified MHC/competitive/radioactivity; filed as Kd, often an IC50 or EC50 that approximates it; ≥ and ≤ were set here for values at or beyond the usual limits of such assays.
Experiment [10] concerns the target HLA-A*29:02. The description is as above.
For experiment [11], the target named is HLA-A*30:01. The description is as above.
The target of experiment [12] is HLA-A*26:01. The experiment is described as above.
Experiment [13] concerns the target HLA-A*24:02. Described as above.
Experiment [14] addresses HLA-A*32:01. Described as above.
Experiment [15] addresses HLA-A*30:02. The description is as above.
The target of experiment [16] is HLA-A*01:01. The description is as above.
The target of experiment [17] is HLA-B*08:01. The experiment is described as follows: IEDB peptide-MHC binding, purified MHC/direct/fluorescence; filed as Kd, often an IC50 or EC50 that approximates it; ≥ and ≤ were set here for values at or beyond the usual limits of such assays. The note with it: source organism: Coxiella burnetii Q321.
Experiment [18] deals with HLA-A*24:02. The experiment is described as follows: IEDB peptide-MHC binding, purified MHC/competitive/fluorescence; ≥ and ≤ were set here for values at or beyond the usual limits of such assays.
Experiment [19] deals with HLA-B*27:05. The experiment is described as follows: IEDB peptide-MHC binding, purified MHC/direct/fluorescence; filed as Kd, often an IC50 or EC50 that approximates it; ≥ and ≤ were set here for values at or beyond the usual limits of such assays. The note with it: source organism: Escherichia coli O157:H7.
The target of experiment [20] is HLA-A*02:01. The experiment is described as above. The following applies: source organism: Escherichia coli O157:H7.
Experiment [21] concerns the target HLA-A*01:01. The description is as above. The following applies: source organism: Escherichia coli O157:H7.
The target in experiment [22] is HLA-B*15:01. The experiment is described as above. The following applies: source organism: Escherichia coli O157:H7.
Experiment [23] deals with HLA-B*07:02. The experiment is described as above. The note with it: source organism: Escherichia coli O157:H7.
Experiment [24] deals with HLA-B*51:01. The experiment is described as follows: IEDB peptide-MHC binding, purified MHC/competitive/radioactivity; filed as Kd, often an IC50 or EC50 that approximates it; ≥ and ≤ were set here for values at or beyond the usual limits of such assays.
Setting [25] is: source organism: Influenza A virus (A/Duck/Shantou/2144/00(H9N2)).
The mark [26] stands for this setting: source organism: Dengue virus 2 Jamaica/1409/1983.
Where [27] appears, read: source organism: Lassa virus Josiah.
Where [28] appears, read: source organism: Dengue virus 3 Martinique/1243/1999.
[29] abbreviates: source organism: Orthohantavirus hantanense.
Where [30] appears, read: source organism: Escherichia coli O157:H7.
Setting [31] is: source organism: Lymphocytic choriomeningitis virus (strain Armstrong).
Setting [32] is: source organism: Dengue virus 1 Brazil/97-11/1997.

The values that follow come from the Immune Epitope Database (IEDB).

pIC50, pKd: −log10 of the molar value. A value given as a limit tells only on which side of the number the result lay.

In the case of GEETIEERF, the pKd (usually −log10 of the Kd, conventionally taken in molar units) in [1] (setting [25]) is ≤ 4.70; in experiment [2] (setting [25]) it was 6.87; in experiment [3] (setting [25]), 5.47.
Turning to ETWMSSEGA, the pKd in experiment [4] (setting [26]) was 8.54.
Take MVSILASSLL: in [4] (setting [26]), the pKd is 7.35.
Consider WTMKILIGVI, for which the pKd in experiment [4] (setting [26]) is 6.74.
With PTAPSDGGM, the pKd in experiment [5] (source organism: Giardia lamblia ATCC 50803) was 5.05; in [6], ≤ 4.70.
Regarding LWNFIHQQR, the pKd in [7] (source organism: Entamoeba histolytica HM-1:IMSS) is ≤ 4.70; in [8], 7.91.
For DCIMTSYQYL, the pKd in experiment [9] (setting [27]) is 5.27; in [10] (setting [27]) it was 4.85; in experiment [11] (setting [27]), 5.35; in experiment [12] (setting [27]) it was 4.90; in [13] (setting [27]) it was 5.64; in [14] (setting [27]), 5.52. Also, the values for the pKd in experiment [15] (setting [27]) and in experiment [16] (setting [27]) were 4.98 and 5.41, respectively.
In the case of YLKAKREKL, in experiment [17], the pKd is 6.84.
Turning to ELTCLNEASV, the pKd in experiment [4] (source organism: Homo sapiens) was 7.16.
Take TVAWRTATLI: in experiment [4] (setting [28]), the pKd is 7.21.
For the sequence TTHFQRALI, the pKd in experiment [4] (setting [26]) was 8.89.
In the case of AEAAGCSMI, the results for the pKd in experiment [2] (setting [29]) and in experiment [3] (setting [29]) were 8.35 and ≤ 4.70, respectively.
In the case of IYTEGLMHN, in experiment [18] (source organism: Sudan ebolavirus), the pIC50 (usually −log10 of the IC50, conventionally taken in molar units) is 5.36.
Consider SMYQLMITI, for which the pKd in [1] (setting [30]) is ≤ 4.70; in experiment [5] (setting [30]), ≤ 4.70; in [7] (setting [30]) it was ≤ 4.70; in [19], ≤ 4.70; in experiment [20] it was 6.08; in experiment [2] (setting [30]), ≤ 5.00. Moreover, the pKd in experiment [21], in experiment [22] and in experiment [23] was ≤ 4.70 in each case.
On to GPDIYKGVY, for which the pKd in [9] (setting [31]) is ≤ 4.11; in experiment [10] (setting [31]), 5.61; in experiment [11] (setting [31]) it was ≤ 4.18; in experiment [12] (setting [31]) it was ≤ 4.11; in [13] (setting [31]), ≤ 4.11; in experiment [14] (setting [31]), ≤ 4.11. Besides, the pKd is 5.74 in experiment [15] (setting [31]) and ≤ 4.49 in experiment [16] (setting [31]).
As for HTIENTTANI, the pKd in experiment [4] (setting [32]) is 8.76; in [12] (setting [32]) it was 5.68.
For KPWDVVPMV, the negative-log Kd (pKd) in [24] (setting [26]) is 5.84.
For the sequence ANLEDLIEW, in experiment [18] (source organism: Vaccinia virus), the pIC50 was ≤ 3.63.
As for YSAPSESEGV, the pKd in experiment [4] (source organism: Dengue virus 4 Dominica/814669/1981) was 7.91.
Take SSAAQRRGRI: the pKd in experiment [4] (setting [26]) is 7.29.
For LPLPWTSGAT, in experiment [24] (setting [28]), the pKd was ≤ 4.67.
On the same count and under the same terms, next, NPHLPEKKI: ≤ 4.54.
